The record followed here is paper PMC3365582.

The assay has as its target PaiB transcriptional regulator from Geobacillus stearothermophilus (Geobacillus stearothermophilus). The assay is described as follows: crystal structure.

On to “PaiB transcriptional regulator from Geobacillus stearothermophilus (natural protein)”, for which the stoichiometry N amounted to 2.

In general, stoichiometry N refers to a count of units in the complex or per binding partner.
